The data set deals with the molecule itself. Briefly: BLI.

B1: diol-dehydratase PduCDE (complex, Salmonella enterica)
chain 1: MRSKRFEALAKRPVNQDGFVKEWIEEGFIAMESPNDPKPSIKIVNGAVTELDGKPVSEFDLIDHFIARYGINLNRAEEVMAMDSVKLANMLCDPNVKRSEIVPLTTAMTPAKIVEVVSHMNVVEMMMAMQKMRARRTPSQQAHVTNVKDNPVQIAADAAEGAWRGFDEQETTVAVARYAPFNAIALLVGSQVGRPGVLTQCSLEEATELKLGMLGHTCYAETISVYGTEPVFTDGDDTPWSKGFLASSYASRGLKMRFTSGSGSEVQMGYAEGKSMLYLEARCIYITKAAGVQGLQNGSVSCIGVPSAVPSGIRAVLAENLICSSLDLECASSNDQTFTHSDMRRTARLLMQFLPGTDFISSGYSAVPNYDNMFAGSNEDAEDFDDYNVIQRDLKVDGGLRPVREEDVIAIRNKAARALQAVFAGMGLPPITDEEVEAATYAHGSKDMPERNIVEDIKFAQEIINKNRNGLEVVKALAQGGFTDVAQDMLNIQKAKLTGDYLHTSAIIVGDGQVLSAVNDVNDYAGPATGYRLQGERWEEIKNIPGALDPNEID
chain 2: MEINEKLLRQIIEDVLRDMKGSDKPVSFNAPAASTAPQTAAPAGDGFLTEVGEARQGTQQDEVIIAVGPAFGLAQTVNIVGLPHKSILREVIAGIEEEGIKARVIRCFKSSDVAFVAVEGNRLSGSGISIGIQSKGTTVIHQQGLPPLSNLELFPQAPLLTLETYRQIGKNAARYAKRESPQPVPTLNDQMARPKYQAKSAILHIKETKYVVTGKNPQELRVAL
chain 3: MNTDAIESMVRDVLSRMNSLQGDAPAAAPAAGGTSRSAKVSDYPLANKHPEWVKTATNKTLDDFTLENVLSNKVTAQDMRITPETLRLQASIAKDAGRDRLAMNFERAAELTAVPDDRILEIYNALRPYRSTKEELLAIADDLENRYQAKICAAFVREAAGLYVERKKLKGDD
For orientation: Kd means the concentration at which binding is half-saturated. The low end stands for higher affinity, the high end for lower affinity. B1 yielded a Kd of 3.5 µM.

These data come from article doi:10.1101/2022.01.14.476392 (bioRxiv, 2022).
